Source: patent US20110263454A1, “Methods of Identifying Functional Characteristics of Promoters, Transcription Modifying Proteins and Transcription Modulating Agents” (Salk Institute for Biological Studies, priority 2008, published 2011)

Experiments:
[1] = system: Bmal1 promoter; assay: NHR-promoter luciferase screen, Bmal1 promoter; assay type: cell-based, mouse; settings: for Luc. act., normalized to lacZ / Normalized Luc. act., normalized to control: Bmal1 promoter, HR component without or with ligand; for mBmal1 promoter reporter activity: transcription factor +/- ligand, control = 1.00
Outline: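 Luciferase activity was measured 48 h after transfection, normalized to LacZ and then to a control lacking NHR or ligand. CV-1 cells carried 100 ng Bmal1 reporter, 50 ng NHR construct and 50 ng LacZ.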

[2] = system: mDio2 promoter; assay: NHR-promoter luciferase screen, mDio2 promoter; assay type: cell-based, mouse; settings: for Luc. act., normalized to lacZ / Normalized Luc. act., normalized to control: Dio2, HR component without or with its ligand; for mDio2 promoter reporter activity: transcription factor +/- ligand, control = 1.00
Outline: (§1)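 CV-1 cells were co-transfected with 50 ng NHR (homodimer or NHR/RXR heterodimer), 100 ng promoter-luciferase construct and 50 ng LacZ. Luciferase was normalized to LacZ and to a no-NHR/no-ligand control.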

[3] = system: MCP-1 promoter; assay: NHR-promoter luciferase screen, MCP-1 promoter; assay type: cell-based; settings: for Normalized Luc. act., normalized to control: HR without or with its ligand, relative to control; for mMCP-1 promoter reporter activity: transcription factor +/- ligand, control = 1.00
Outline: as §1

[4] = system: mADRP promoter; assay: NHR-promoter luciferase screen, mADRP promoter; assay type: cell-based, mouse; settings: for Luc. act., normalized to lacZ / Normalized Luc. act., normalized to control: ADRP promoter, HR/ligand component; for mADRP promoter reporter activity: transcription factor +/- ligand, control = 1.00
Outline: as §1

[5] = system: mUCP3 promoter; assay: NHR-promoter luciferase screen, mUCP3 promoter; assay type: cell-based, mouse; settings: for Normalized Luc. act., normalized to control / Luc. act., normalized to lacZ: mUCP3 promoter reporter; for Normalized Luc. act., normalized to control: HR without or with its ligand, relative to control; for Luc. act., normalized to lacZ: hormone receptor (HR) without or with its ligand; for mUCP3 promoter reporter activity: transcription factor +/- ligand, control = 1.00
Outline: as §1

[6] = system: hIFNg promoter; assay: NHR-promoter luciferase screen, hIFNg promoter; assay type: cell-based, human; settings: for Luc. act., normalized to lacZ / Normalized Luc. act., normalized to control: IFNg promoter, HR component without or with ligand; for hIFNg promoter reporter activity: transcription factor +/- ligand, control = 1.00
Outline: as §1

B1: hMR: Mineralocorticoid Receptor (NR3C2, MR), cDNA driver (protein, UniProt P08235 1-984, looked up)
Mineralocorticoid receptor: METKGYHSLPEGLDMERRWGQVSQAVERSSLGPTERTDENNYMEIVNVSCVSGAIPNNSTQGSSKEKQELLPCLQQDNNRPGILTSDIKTELESKELSATVAESMGLYMDSVRDADYSYEQQNQQGSMSPAKIYQNVEQLVKFYKGNGHRPSTLSCVNTPLRSFMSDSGSSVNGGVMRAVVKSPIMCHEKSPSVCSPLNMTSSVCSPAGINSVSSTTASFGSFPVHSPITQGTPLTCSPNVENRGSRSHSPAHASNVGSPLSSPLSSMKSSISSPPSHCSVKSPVSSPNNVTLRSSVSSPANINNSRCSVSSPSNTNNRSTLSSPAASTVGSICSPVNNAFSYTASGTSAGSSTLRDVVPSPDTQEKGAQEVPFPKTEEVESAISNGVTGQLNIVQYIKPEPDGAFSSSCLGGNSKINSDSSFSVPIKQESTKHSCSGTSFKGNPTVNPFPFMDGSYFSFMDDKDYYSLSGILGPPVPGFDGNCEGSGFPVGIKQEPDDGSYYPEASIPSSAIVGVNSGGQSFHYRIGAQGTISLSRSARDQSFQHLSSFPPVNTLVESWKSHGDLSSRRSDGYPVLEYIPENVSSSTLRSVSTGSSRPSKICLVCGDEASGCHYGVVTCGSCKVFFKRAVEGQHNYLCAGRNDCIIDKIRRKNCPACRLQKCLQAGMNLGARKSKKLGKLKGIHEEQPQQQQPPPPPPPPQSPEEGTTYIAPAKEPSVNTALVPQLSTISRALTPSPVMVLENIEPEIVYAGYDSSKPDTAENLLSTLNRLAGKQMIQVVKWAKVLPGFKNLPLEDQITLIQYSWMCLSSFALSWRSYKHTNSQFLYFAPDLVFNEEKMHQSAMYELCQGMHQISLQFVRLQLTFEEYTIMKVLLLLSTIPKDGLKSQAAFEEMRTNYIKELRKMVTKCPNNSGQSWQRFYQLTKLLDSMHDLVSDLLEFCFYTFRESHALKVEFPAMLVEIISDQLPKVESGNAKPLYFHRK
Luc. act., normalized to lacZ [1]: 18.2 | Normalized Luc. act., normalized to control [1]: 1.2 | mBmal1 promoter reporter activity [1]: 1.17 | Luc. act., normalized to lacZ [2]: 12.7 | Normalized Luc. act., normalized to control [2]: 0.8 | mDio2 promoter reporter activity [2]: 0.81 | Normalized Luc. act., normalized to control ([3]; MCP-1 promoter reporter): 0.0 | mMCP-1 promoter reporter activity [3]: 0.00 | Luc. act., normalized to lacZ [4]: 306.4 | Normalized Luc. act., normalized to control [4]: 0.6 | mADRP promoter reporter activity [4]: 0.62 | Normalized Luc. act., normalized to control [5]: 0.7 | Luc. act., normalized to lacZ [5]: 0.50 | mUCP3 promoter reporter activity [5]: 0.74 | Luc. act., normalized to lacZ [6]: 10.4 | Normalized Luc. act., normalized to control [6]: 0.7 | hIFNg promoter reporter activity [6]: 0.65

B2: CTF3: COUP-TF3 (NR2F6), cDNA driver (protein, UniProt P10588 1-404, looked up)
Nuclear receptor subfamily 2 …: MAMVTGGWGGPGGDTNGVDKAGGYPRAAEDDSASPPGAASDAEPGDEERPGLQVDCVVCGDKSSGKHYGVFTCEGCKSFFKRSIRRNLSYTCRSNRDCQIDQHHRNQCQYCRLKKCFRVGMRKEAVQRGRIPHSLPGAVAASSGSPPGSALAAVASGGDLFPGQPVSELIAQLLRAEPYPAAAGRFGAGGGAAGAVLGIDNVCELAARLLFSTVEWARHAPFFPELPVADQVALLRLSWSELFVLNAAQAALPLHTAPLLAAAGLHAAPMAAERAVAFMDQVRAFQEQVDKLGRLQVDSAEYGCLKAIALFTPDACGLSDPAHVESLQEKAQVALTEYVRAQYPSQPQRFGRLLLRLPALRAVPASLISQLFFMRLVGKTPIETLIRDMLLSGSTFNWPYGSGQ
Luc. act., normalized to lacZ [1]: 21.2 | Normalized Luc. act., normalized to control [1]: 1.4 | mBmal1 promoter reporter activity [1]: 1.35 | Luc. act., normalized to lacZ [2]: 15.3 | Normalized Luc. act., normalized to control [2]: 1.0 | mDio2 promoter reporter activity [2]: 0.97 | Normalized Luc. act., normalized to control ([3]; MCP-1 promoter reporter): 1.6 | Luc. act., normalized to lacZ ([3]; MCP-1 promoter reporter, hormone receptor (HR) without or with its ligand): 175.5 | mMCP-1 promoter reporter activity [3]: 1.64 | Luc. act., normalized to lacZ [4]: 462.7 | Normalized Luc. act., normalized to control [4]: 0.9 | mADRP promoter reporter activity [4]: 0.93 | Normalized Luc. act., normalized to control [5]: 0.8 | Luc. act., normalized to lacZ [5]: 0.6 | mUCP3 promoter reporter activity [5]: 0.82 | Luc. act., normalized to lacZ [6]: 28.5 | Normalized Luc. act., normalized to control [6]: 1.8 | hIFNg promoter reporter activity [6]: 1.79
